In assay [1] the target is human complement protein C3 (human) (UniProt P01024). The assay is described as follows: cell-based or functional assay.
Assay [2] addresses proteinase-activated receptor 2 (PAR-2) (UniProt P55085). In words: cell-based or functional assay.

Numbering of substitutions follows the chain as printed. Numbers in names are those of the source. Bounds are passed on as bounds.

Chain of proteinase-activated receptor 2 (PAR-2) (P55085 37-397 limits assumed): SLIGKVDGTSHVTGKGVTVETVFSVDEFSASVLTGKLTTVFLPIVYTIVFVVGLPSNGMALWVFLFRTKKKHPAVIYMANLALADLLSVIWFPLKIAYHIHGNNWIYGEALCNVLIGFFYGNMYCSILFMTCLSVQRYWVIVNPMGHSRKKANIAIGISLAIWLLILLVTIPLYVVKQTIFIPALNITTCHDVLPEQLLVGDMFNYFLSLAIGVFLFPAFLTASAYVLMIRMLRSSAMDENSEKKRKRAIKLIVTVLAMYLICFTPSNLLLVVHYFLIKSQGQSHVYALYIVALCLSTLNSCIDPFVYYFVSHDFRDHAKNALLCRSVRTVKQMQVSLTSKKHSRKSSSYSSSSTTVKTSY
Chain of human complement protein C3 (human) (P01024 23-667, chain 1 of 2): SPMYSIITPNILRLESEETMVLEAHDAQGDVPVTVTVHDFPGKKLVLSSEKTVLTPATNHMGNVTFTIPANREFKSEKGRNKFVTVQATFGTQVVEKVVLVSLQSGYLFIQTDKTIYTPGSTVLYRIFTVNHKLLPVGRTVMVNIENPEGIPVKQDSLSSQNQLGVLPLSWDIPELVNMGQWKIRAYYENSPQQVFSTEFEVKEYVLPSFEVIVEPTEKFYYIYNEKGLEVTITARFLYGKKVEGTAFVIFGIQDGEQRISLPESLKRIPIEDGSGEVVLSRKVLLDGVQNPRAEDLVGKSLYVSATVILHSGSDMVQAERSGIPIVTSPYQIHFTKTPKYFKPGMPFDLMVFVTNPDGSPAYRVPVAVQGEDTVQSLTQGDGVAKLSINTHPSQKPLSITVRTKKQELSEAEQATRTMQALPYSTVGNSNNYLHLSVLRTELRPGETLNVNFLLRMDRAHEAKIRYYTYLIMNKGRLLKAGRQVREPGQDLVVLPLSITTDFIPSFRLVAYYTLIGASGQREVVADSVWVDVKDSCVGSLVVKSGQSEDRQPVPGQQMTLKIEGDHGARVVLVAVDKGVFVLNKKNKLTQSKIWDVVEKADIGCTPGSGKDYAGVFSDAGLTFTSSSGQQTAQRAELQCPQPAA
Chain of human complement protein C3 (human) (P01024 672-1663, chain 2 of 2): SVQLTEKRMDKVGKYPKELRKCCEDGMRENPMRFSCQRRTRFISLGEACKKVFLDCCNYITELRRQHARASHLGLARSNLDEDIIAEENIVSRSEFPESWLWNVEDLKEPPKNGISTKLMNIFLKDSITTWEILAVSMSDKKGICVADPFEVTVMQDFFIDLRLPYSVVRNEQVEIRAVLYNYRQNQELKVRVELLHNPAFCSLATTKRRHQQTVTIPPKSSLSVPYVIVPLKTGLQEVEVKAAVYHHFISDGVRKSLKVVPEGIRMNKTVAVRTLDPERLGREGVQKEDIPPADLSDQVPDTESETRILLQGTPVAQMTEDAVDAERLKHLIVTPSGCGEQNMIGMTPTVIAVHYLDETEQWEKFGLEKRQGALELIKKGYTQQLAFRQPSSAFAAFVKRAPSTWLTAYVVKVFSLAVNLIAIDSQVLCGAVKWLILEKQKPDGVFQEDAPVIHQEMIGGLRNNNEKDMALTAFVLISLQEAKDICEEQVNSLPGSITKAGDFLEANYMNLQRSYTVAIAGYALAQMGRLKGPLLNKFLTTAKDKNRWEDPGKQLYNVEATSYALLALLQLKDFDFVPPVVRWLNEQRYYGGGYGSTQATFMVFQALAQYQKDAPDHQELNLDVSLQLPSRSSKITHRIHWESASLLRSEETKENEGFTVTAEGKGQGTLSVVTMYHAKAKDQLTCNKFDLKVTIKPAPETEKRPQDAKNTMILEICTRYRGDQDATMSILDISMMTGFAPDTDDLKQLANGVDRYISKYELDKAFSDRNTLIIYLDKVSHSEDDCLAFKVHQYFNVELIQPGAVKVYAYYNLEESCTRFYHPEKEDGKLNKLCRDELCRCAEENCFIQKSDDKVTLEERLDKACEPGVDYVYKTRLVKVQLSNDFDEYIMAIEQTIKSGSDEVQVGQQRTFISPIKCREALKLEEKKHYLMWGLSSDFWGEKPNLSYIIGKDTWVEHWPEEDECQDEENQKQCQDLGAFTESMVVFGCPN

B1: I41S/F99L/C122S/G151N/Q175M/Q192G/D217V (enzyme)
chain: VVGGTDADEGEWPWQVSLHALGQGHSCGASLISPNWLVSAAHCYIDDRGFRYSDPTQWTAFLGLHDQSQRSAPGVQERRLKRIISHPFFNDFTLDYDIALLELEKPAEYSSMVRPISLPDASHVFPAGKAIWVTGWGHTQYGGTNALILQKGEIRVINQTTCENLLPQMITPRMMCVGFLSGGVDSCGGDSGGPLSSVEADGRIFQAGVVSWGVGCAQRNKPGVYTRLPLFRDWIKENTGV
In assay [1], B1 gave an EC50 (nM), cleavage of purified hC3 in vitro of 3.19 nM.

B2: H40R/I41H/Y60gH/F97D/F99L/C122S/Q175M/Q192G/D217I/K224L (enzyme)
chain: B1 chain with H25R, S26H, Y52H, F92D, N145G, V214I, K221L
Regarding B2, the EC50 (nM), cleavage of purified hC3 in vitro in assay [1] amounted to 3.72 nM.

B3: Wild-type MTSP-1 protease domain with C122S (enzyme)
chain: B1 chain with S26I, L94F, N145G, M169Q, G188Q, V214D
In the case of B3, the PAR-2 Cell Based Assay ED50 in assay [2] stood at 1.4 nM.

B4: Modified MTSP-1 protease domain Q38H/I41S/D60bT/F60eS/Y60gW/F97D/ins97aV/T98P/F99L/C122S/G151H/Q175L/Q192E (enzyme)
chain: VVGGTDADEGEWPWQVSLHALGHGHSCGASLISPNWLVSAAHCYIDTRGSRWSDPTQWTAFLGLHDQSQRSAPGVQERRLKRIISHPFFNDDVPLDYDIALLELEKPAEYSSMVRPISLPDASHVFPAGKAIWVTGWGHTQYGGTHALILQKGEIRVINQTTCENLLPQLITPRMMCVGFLSGGVDSCEGDSGGPLSSVEADGRIFQAGVVSWGDGCAQRNKPGVYTRLPLFRDWIKENTGV
In turn, B4 registered a PAR-2 cell based assay ED50 and SKGR/SL kcat/Km, against wild-type MTSP-1 protease domain with C122S in assay [2] of more than 30 fold.

B5: Modified MTSP-1 protease domain Q38H/I41A/D60bV/F60eR/Y60gW/F97T/ins97aE/T98G/F99L/C122S/G151H/Q175L/Q192D (enzyme)
chain: B4 chain with S26A, T47V, S50R, D92T, V93E, P94G, E189D
B5 had a PAR-2 cell based assay ED50 and SKGR/SL kcat/Km, against wild-type MTSP-1 protease domain with C122S in assay [2] of more than 30 fold.

B6: Modified MTSP-1 protease domain Q38H/I41S/D60bT/F60eS/Y60gW/D96Y/F97E/ins97aV/T98G/F99L/C122S/G151H/Q175L/Q192D (enzyme)
chain: B4 chain with D91Y, D92E, P94G, E189D
For B6, the PAR-2 cell based assay ED50 and SKGR/SL kcat/Km, against wild-type MTSP-1 protease domain with C122S in assay [2] is more than 30 fold.

B7: Modified MTSP-1 protease domain Q38H/I41S/D60bT/F60eS/Y60gW/F97D/ins97aV/T98P/F99L/C122S/G151N/Q175L/Q192D (enzyme)
chain: B4 chain with H146N, E189D
In assay [2], B7 returned a PAR-2 cell based assay ED50 and SKGR/SL kcat/Km, against wild-type MTSP-1 protease domain with C122S of more than 30 fold.

B8: Modified MTSP-1 protease domain Q38H/I41A/D60bV/F60eR/Y60gW/D96P/F97W/ins97aN/T98G/F99L/C122S/G151N/Q175L/Q192E (enzyme)
chain: B4 chain with S26A, T47V, S50R, D91P, D92W, V93N, P94G, H146N
The molecule B8 registered a PAR-2 cell based assay ED50 and SKGR/SL kcat/Km, against wild-type MTSP-1 protease domain with C122S in assay [2] of more than 30 fold.

B9: Q38H/I41S/D60bT/F60eS/Y60gW/F97D/ins97aV/T98P/F99L/C122S/G151H/Q175L/Q192D (enzyme)
chain: B4 chain with E189D
Regarding B9, in assay [2], the PAR-2 Cell Based Assay ED50 amounted to 640 nM.

B10: Q38R/I41S/D60bY/F60eD/ins97aV/F97D/T98P/F99L/C122S/G151N/Q175M/Q192A (enzyme)
chain: B4 chain with H23R, T47Y, S50D, W52Y, H146N, L170M, E189A
For the molecule B10, the EC50 (nM), cleavage of purified hC3 in vitro in assay [1] was determined as 3.22 nM.

B11: Modified MTSP-1 protease domain Q38H/I41S/D60bT/F60eS/Y60gW/D96L/F97D/ins97aG/T98N/F99L/C122S/G151H/Q175L/Q192E (enzyme)
chain: B4 chain with D91L, V93G, P94N
Consider B11, for which the PAR-2 cell based assay ED50 and SKGR/SL kcat/Km, against wild-type MTSP-1 protease domain with C122S in assay [2] was more than 30 fold.

B12: Q38H/I41A/D60bT/F60eK/Y60gW/F97T/ins97aE/T98G/F99L/C122S/G151H/Q175L/Q192D (enzyme)
chain: B4 chain with S26A, S50K, D92T, V93E, P94G, E189D
Consider B12, for which the PAR-2 Cell Based Assay ED50 in assay [2] worked out at 560 nM.

B13: Modified MTSP-1 protease domain Q38H/I41S/D60bT/F60eS/Y60gW/D96K/F97D/ins97aA/T98P/F99L/C122S/G151N/Q175L/Q192D (enzyme)
chain: B4 chain with D91K, V93A, H146N, E189D
In turn, B13 came in with a PAR-2 cell based assay ED50 and SKGR/SL kcat/Km, against wild-type MTSP-1 protease domain with C122S in assay [2] of more than 30 fold.

B14: Modified MTSP-1 protease domain Q38H/I41A/D60bV/F60eR/Y60gW/F97T/ins97aE/T98G/F99L/C122S/G151N/Q175L/Q192D (enzyme)
chain: B4 chain with S26A, T47V, S50R, D92T, V93E, P94G, H146N, E189D
In the case of B14, the PAR-2 cell based assay ED50 and SKGR/SL kcat/Km, against wild-type MTSP-1 protease domain with C122S in assay [2] was more than 30 fold.

B15: Q38H/I41A/D60bV/F60eR/Y60gW/D96F/F97Y/ins97aN/T98G/F99M/C122S/G151N/Q175L/Q192G (enzyme)
chain: B4 chain with S26A, T47V, S50R, D91F, D92Y, V93N, P94G, L95M, H146N, E189G
B15: the EC50 (nM), cleavage of purified hC3 in vitro in assay [1] stood at 3.76 nM.

B16: Q38H/I41S/D60bT/F60eS/Y60gW/D96F/F97Y/ins97aD/T98G/F99L/C122S/G151H/Q175L/Q192D (enzyme)
chain: B4 chain with D91F, D92Y, V93D, P94G, E189D
On to B16, for which the EC50 (nM), cleavage of purified hC3 in vitro in assay [1] was 3.13 nM.

B17: Modified MTSP-1 protease domain Q38H/I41A/D60bT/F60eK/Y60gW/F97T/ins97aE/T98G/F99L/C122S/G151H/Q175L/Q192D (enzyme)
chain: B4 chain with S26A, S50K, D92T, V93E, P94G, E189D
For B17, the PAR-2 cell based assay ED50 and SKGR/SL kcat/Km, against wild-type MTSP-1 protease domain with C122S in assay [2] was more than 30 fold.

B18: Q38H/I41S/D60bT/F60eS/Y60gW/D96Y/F97N/ins97aE/T98S/F99L/C122S/G151H/Q175L/Q192D (enzyme)
chain: B4 chain with D91Y, D92N, V93E, P94S, E189D
For the molecule B18, the EC50 (nM), cleavage of purified hC3 in vitro in assay [1] was determined as 4.53 nM.

B19: Modified MTSP-1 protease domain I41R/F97T/Ins97aE/T98G/F99L/C122S/G151N/Q175L/Q192E (enzyme)
chain: B4 chain with H23Q, S26R, T47D, S50F, W52Y, D92T, V93E, P94G, H146N
B19 displayed a PAR-2 cell based assay ED50 and SKGR/SL kcat/Km, against wild-type MTSP-1 protease domain with C122S in assay [2] of more than 30 fold.

B20: Q38H/I41A/D60bV/F60eR/Y60gW/F97T/ins97aE/T98G/F99L/C122S/G151H/Q175L/Q192D (enzyme)
chain: B4 chain with S26A, T47V, S50R, D92T, V93E, P94G, E189D
B20 registered a PAR-2 Cell Based Assay ED50 in assay [2] of 430 nM.

B21: I41R/F97T/Ins97aE/T98G/F99L/C122S/G151N/Q175L/Q192E (enzyme)
chain: B4 chain with H23Q, S26R, T47D, S50F, W52Y, D92T, V93E, P94G, H146N
Consider B21, for which, in assay [2], the PAR-2 Cell Based Assay ED50 was found to be 2600 nM.

B22: Q38H/I41A/D60bV/F60eR/Y60gW/D96F/F97S/ins97aH/T98G/F99L/C122S/G151N/Q175L/Q192G (enzyme)
chain: B4 chain with S26A, T47V, S50R, D91F, D92S, V93H, P94G, H146N, E189G
B22 showed an EC50 (nM), cleavage of purified hC3 in vitro in assay [1] of 3.14 nM.

B23: Modified MTSP-1 protease domain Q38H/I41S/D60bT/F60eS/Y60gW/D96K/F97D/ins97aA/T98P/F99L/C122S/G151H/Q175L/Q192D (enzyme)
chain: B4 chain with D91K, V93A, E189D
Consider B23, for which, in assay [2], the PAR-2 cell based assay ED50 and SKGR/SL kcat/Km, against wild-type MTSP-1 protease domain with C122S was more than 30 fold.

B24: Modified MTSP-1 protease domain Q38H/I41A/D60bV/F60eR/Y60gW/D96I/F97Y/ins97aN/T98G/F99L/C122S/G151N/Q175L/Q192D (enzyme)
chain: B4 chain with S26A, T47V, S50R, D91I, D92Y, V93N, P94G, H146N, E189D
For B24, in assay [2], the PAR-2 cell based assay ED50 and SKGR/SL kcat/Km, against wild-type MTSP-1 protease domain with C122S was more than 30 fold.

B25: Modified MTSP-1 protease domain Q38H/I41A/D60bT/F60eK/Y60gW/F97T/ins97aE/T98G/F99L/C122S/G151N/Q175L/Q192D (enzyme)
chain: B4 chain with S26A, S50K, D92T, V93E, P94G, H146N, E189D
In assay [2], B25 yielded a PAR-2 cell based assay ED50 and SKGR/SL kcat/Km, against wild-type MTSP-1 protease domain with C122S of more than 30 fold.

B26: Q38H/I41S/D60bT/F60eS/Y60gW/D96K/F97D/ins97aA/T98P/F99L/C122S/G151N/Q175L/Q192D (enzyme)
chain: B4 chain with D91K, V93A, H146N, E189D
B26 gave an EC50 (nM), cleavage of purified hC3 in vitro in assay [1] of 5.92 nM.

B27: Q38H/I41S/D60bT/F60eS/Y60gW/ins97aV/T98P/F99L/C122S/G151H/Q175L/Q192E (enzyme)
chain: B4 chain with D92F
In assay [1], B27 showed an EC50 (nM), cleavage of purified hC3 in vitro of 3.19 nM.

B28: Q38H/I41S/D60bT/F60eS/Y60gW/D96K/F97D/ins97aA/T98P/F99L/C122S/G151H/Q175L/Q192D (enzyme)
chain: B4 chain with D91K, V93A, E189D
B28 had a PAR-2 Cell Based Assay ED50 in assay [2] of 420 nM.

B29: Modified MTSP-1 protease domain Q38H/I41S/D60bT/F60eS/Y60gW/D96V/F97G/ins97aV/T98P/F99L/C122S/G151H/Q175L/Q192D (enzyme)
chain: B4 chain with D91V, D92G, E189D
Molecule B29 came in with a PAR-2 cell based assay ED50 and SKGR/SL kcat/Km, against wild-type MTSP-1 protease domain with C122S in assay [2] of more than 30 fold.

B30: Modified MTSP-1 protease domain Q38H/I41S/D60bT/F60eS/Y60gW/F97D/ins97aV/T98P/F99L/C122S/G151H/Q175L/Q192D (enzyme)
chain: B4 chain with E189D
B30 gave a PAR-2 cell based assay ED50 and SKGR/SL kcat/Km, against wild-type MTSP-1 protease domain with C122S in assay [2] of more than 30 fold.

B31: Modified MTSP-1 protease domain Q38H/I41A/D60bV/F60eR/Y60gW/D96I/F97N/T98G/F99L/C122S/G151N/Q175L/Q192D (enzyme)
chain: VVGGTDADEGEWPWQVSLHALGHGHACGASLISPNWLVSAAHCYIDVRGRRWSDPTQWTAFLGLHDQSQRSAPGVQERRLKRIISHPFFNINGLDYDIALLELEKPAEYSSMVRPISLPDASHVFPAGKAIWVTGWGHTQYGGTNALILQKGEIRVINQTTCENLLPQLITPRMMCVGFLSGGVDSCDGDSGGPLSSVEADGRIFQAGVVSWGDGCAQRNKPGVYTRLPLFRDWIKENTGV
B31 displayed a PAR-2 cell based assay ED50 and SKGR/SL kcat/Km, against wild-type MTSP-1 protease domain with C122S in assay [2] of more than 30 fold.

B32: Q38Y/I41S/D60bT/F60eR/Y60gW/D96M/T98G/F99L/C122S/G151N/Q175L/Q192D (enzyme)
chain: B31 chain with H23Y, A26S, V47T, I91M, N92F
Turning to B32, the EC50 (nM), cleavage of purified hC3 in vitro in assay [1] amounted to 3.27 nM.

B33: Q38H/I41A/D60bV/F60eR/Y60gW/F97D/F99L/C122S/G151H/Q175L/Q192D (enzyme)
chain: B31 chain with I91D, N92D, G93T, N145H
Consider B33, for which the EC50 (nM), cleavage of purified hC3 in vitro in assay [1] is 3.72 nM.

Source of the values: US20240018502A1.
